Laboratory results: US20190263889A1
Values joined by “and” are separate entries in the source; they are usually repeats but may differ in a detail not shown here. Equal values may be shown once. Read-outs that look alike come from different tables or passages of the source.

Columns and labels:
[1] = target: CTLA-4Fc mutant protein M1 (human (murine residues substituted)); assay: ELISA; binder 10 ng/ml on coated target
[2] = target: CTLA-4Fc mutant protein M10 (human (murine residues substituted)); assay: ELISA; binder 10 ng/ml on coated target
[3] = target: CTLA-4Fc mutant protein M11 (human (murine residues substituted)); assay: ELISA; binder 10 ng/ml on coated target
[4] = target: CTLA-4Fc mutant protein M2 (human (murine residues substituted)); assay: ELISA; binder 10 ng/ml on coated target
[5] = target: CTLA-4Fc mutant protein M3 (human (murine residues substituted)); assay: ELISA; binder 10 ng/ml on coated target
[6] = target: CTLA-4Fc mutant protein M4 (human (murine residues substituted)); assay: ELISA; binder 10 ng/ml on coated target
[7] = target: CTLA-4Fc mutant protein M5 (human (murine residues substituted)); assay: ELISA; binder 10 ng/ml on coated target
[8] = target: CTLA-4Fc mutant protein M6 (human (murine residues substituted)); assay: ELISA; binder 10 ng/ml on coated target
[9] = target: CTLA-4Fc mutant protein M7 (human (murine residues substituted)); assay: ELISA; binder 10 ng/ml on coated target
[10] = target: CTLA-4Fc mutant protein M8 (human (murine residues substituted)); assay: ELISA; binder 10 ng/ml on coated target
[11] = target: CTLA-4Fc mutant protein M9 (human (murine residues substituted)); assay: ELISA; binder 10 ng/ml on coated target
[12] = target: wild type human CTLA-4Fc fusion protein (abatacept) (human); assay: ELISA; binder 10 ng/ml on coated target
[13] = target: CTLA-4Fc mutant protein M2 (human (murine residues substituted)); assay: ELISA; binder 10 ng/ml on coated target; remark: listed apart in the source
[14] = target: CTLA-4Fc mutant protein M4 (human (murine residues substituted)); assay: ELISA; binder 10 ng/ml on coated target; remark: listed apart in the source
[15] = target: CTLA-4Fc mutant protein M6 (human (murine residues substituted)); assay: ELISA; binder 10 ng/ml on coated target; remark: listed apart in the source
[16] = target: CTLA-4Fc mutant protein M8 (human (murine residues substituted)); assay: ELISA; binder 10 ng/ml on coated target; remark: listed apart in the source
[17] = target: CTLA-4Fc mutant protein M9 (human (murine residues substituted)); assay: ELISA; binder 10 ng/ml on coated target; remark: listed apart in the source
[18] = target: human IgG1-Fc control (human) [IgG part: P01857]; assay: ELISA; binder 10 ng/ml on coated target
[19] = target: human CTLA-4 (form in the blocking assay not stated) (human) (UniProt P16410); assay: blocking of B7-CTLA-4 interaction; format not stated, no data shown
human CTLA-4 (form in the blocking assay not stated) (human), sequence (P16410 36-223 limits assumed): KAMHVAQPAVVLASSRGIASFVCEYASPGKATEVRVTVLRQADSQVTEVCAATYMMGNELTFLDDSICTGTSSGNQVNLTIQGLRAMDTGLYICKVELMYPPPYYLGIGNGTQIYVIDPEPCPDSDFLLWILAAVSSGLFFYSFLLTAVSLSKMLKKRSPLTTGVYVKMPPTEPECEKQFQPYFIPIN

CTLA-4Fc mutant protein M9 (human (murine residues substituted)), sequence (chain, as listed by the source mutant): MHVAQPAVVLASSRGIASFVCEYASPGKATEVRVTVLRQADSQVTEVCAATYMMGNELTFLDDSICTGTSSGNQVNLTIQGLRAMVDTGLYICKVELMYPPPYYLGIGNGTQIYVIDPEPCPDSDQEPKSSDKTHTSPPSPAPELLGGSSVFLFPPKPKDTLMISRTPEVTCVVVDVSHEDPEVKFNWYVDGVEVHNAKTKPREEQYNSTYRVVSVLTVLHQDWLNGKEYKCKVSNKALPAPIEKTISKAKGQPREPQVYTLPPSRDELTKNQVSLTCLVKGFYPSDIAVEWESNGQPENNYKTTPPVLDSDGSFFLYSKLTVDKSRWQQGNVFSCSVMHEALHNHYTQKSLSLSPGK
CTLA-4Fc mutant protein M2 (human (murine residues substituted)), sequence (chain, as listed by the source mutant): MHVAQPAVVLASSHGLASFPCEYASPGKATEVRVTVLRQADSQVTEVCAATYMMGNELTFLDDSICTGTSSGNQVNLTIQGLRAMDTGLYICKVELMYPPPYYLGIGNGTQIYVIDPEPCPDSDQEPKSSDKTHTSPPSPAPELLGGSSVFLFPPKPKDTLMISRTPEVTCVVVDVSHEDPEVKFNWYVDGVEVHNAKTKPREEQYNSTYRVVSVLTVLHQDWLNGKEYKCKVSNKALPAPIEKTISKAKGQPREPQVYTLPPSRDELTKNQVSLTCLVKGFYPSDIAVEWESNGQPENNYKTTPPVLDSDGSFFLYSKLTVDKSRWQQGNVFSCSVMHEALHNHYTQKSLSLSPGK
CTLA-4Fc mutant protein M6 (human (murine residues substituted)), sequence (chain, as listed by the source mutant): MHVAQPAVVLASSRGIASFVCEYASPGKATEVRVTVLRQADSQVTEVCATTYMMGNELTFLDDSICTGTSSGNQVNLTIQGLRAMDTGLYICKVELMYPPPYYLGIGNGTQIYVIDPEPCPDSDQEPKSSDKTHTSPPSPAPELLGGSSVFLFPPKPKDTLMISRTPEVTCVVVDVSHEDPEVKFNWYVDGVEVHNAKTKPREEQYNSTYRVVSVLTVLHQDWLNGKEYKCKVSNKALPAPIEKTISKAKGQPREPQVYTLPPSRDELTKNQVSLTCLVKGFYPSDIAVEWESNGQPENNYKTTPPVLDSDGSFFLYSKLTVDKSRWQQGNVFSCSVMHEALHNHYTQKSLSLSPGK
CTLA-4Fc mutant protein M4 (human (murine residues substituted)), sequence (chain, as listed by the source mutant): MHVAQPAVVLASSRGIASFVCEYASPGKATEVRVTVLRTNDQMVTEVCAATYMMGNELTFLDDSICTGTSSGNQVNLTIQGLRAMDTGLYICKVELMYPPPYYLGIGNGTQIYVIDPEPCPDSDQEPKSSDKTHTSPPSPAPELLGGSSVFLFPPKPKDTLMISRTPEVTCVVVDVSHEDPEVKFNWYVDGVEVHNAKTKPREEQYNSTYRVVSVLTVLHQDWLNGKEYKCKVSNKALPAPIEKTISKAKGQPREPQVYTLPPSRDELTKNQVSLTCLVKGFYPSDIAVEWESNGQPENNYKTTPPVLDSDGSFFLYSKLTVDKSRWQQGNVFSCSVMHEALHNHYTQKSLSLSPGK
CTLA-4Fc mutant protein M8 (human (murine residues substituted)), sequence (chain, as listed by the source mutant): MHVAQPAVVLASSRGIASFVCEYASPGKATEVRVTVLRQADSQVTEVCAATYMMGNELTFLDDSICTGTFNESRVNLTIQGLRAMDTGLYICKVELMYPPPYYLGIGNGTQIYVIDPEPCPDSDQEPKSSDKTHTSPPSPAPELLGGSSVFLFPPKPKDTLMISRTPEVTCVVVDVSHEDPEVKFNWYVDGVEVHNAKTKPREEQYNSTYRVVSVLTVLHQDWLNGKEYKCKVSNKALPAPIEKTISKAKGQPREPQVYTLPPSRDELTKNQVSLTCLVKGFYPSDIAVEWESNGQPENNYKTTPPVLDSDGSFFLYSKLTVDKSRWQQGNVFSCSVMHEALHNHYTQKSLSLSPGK
CTLA-4Fc mutant protein M11 (human (murine residues substituted)), sequence (chain, as listed by the source mutant): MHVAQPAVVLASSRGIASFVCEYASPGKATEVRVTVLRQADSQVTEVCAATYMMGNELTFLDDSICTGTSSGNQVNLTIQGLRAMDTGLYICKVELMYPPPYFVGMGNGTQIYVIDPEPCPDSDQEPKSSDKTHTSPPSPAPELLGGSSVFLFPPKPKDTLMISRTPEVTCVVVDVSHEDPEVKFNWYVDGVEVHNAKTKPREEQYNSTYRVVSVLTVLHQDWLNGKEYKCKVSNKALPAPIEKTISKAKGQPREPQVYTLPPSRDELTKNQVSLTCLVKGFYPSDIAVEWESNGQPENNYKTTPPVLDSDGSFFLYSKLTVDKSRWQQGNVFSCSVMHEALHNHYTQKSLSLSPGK
CTLA-4Fc mutant protein M3 (human (murine residues substituted)), sequence (chain, as listed by the source mutant): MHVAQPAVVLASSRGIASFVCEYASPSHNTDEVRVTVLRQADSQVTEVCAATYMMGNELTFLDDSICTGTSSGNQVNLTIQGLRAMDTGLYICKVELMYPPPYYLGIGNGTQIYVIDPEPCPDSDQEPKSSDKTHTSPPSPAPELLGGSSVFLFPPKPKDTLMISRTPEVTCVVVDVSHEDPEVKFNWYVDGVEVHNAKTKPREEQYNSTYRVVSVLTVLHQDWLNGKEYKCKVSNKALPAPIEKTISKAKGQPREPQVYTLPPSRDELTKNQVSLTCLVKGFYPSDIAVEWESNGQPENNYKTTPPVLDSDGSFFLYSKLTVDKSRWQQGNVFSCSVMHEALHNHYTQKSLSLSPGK
CTLA-4Fc mutant protein M1 (human (murine residues substituted)), sequence (chain, as listed by the source mutant): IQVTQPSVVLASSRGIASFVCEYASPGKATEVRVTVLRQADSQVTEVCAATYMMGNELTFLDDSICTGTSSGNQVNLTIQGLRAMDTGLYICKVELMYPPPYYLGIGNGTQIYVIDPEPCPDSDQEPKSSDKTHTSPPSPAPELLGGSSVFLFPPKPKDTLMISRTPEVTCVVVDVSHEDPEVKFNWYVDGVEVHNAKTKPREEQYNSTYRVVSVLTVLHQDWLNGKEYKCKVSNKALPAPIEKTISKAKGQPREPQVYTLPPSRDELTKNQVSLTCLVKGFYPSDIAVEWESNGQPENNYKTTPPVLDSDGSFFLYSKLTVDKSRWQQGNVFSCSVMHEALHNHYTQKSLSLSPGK
CTLA-4Fc mutant protein M7 (human (murine residues substituted)), sequence (chain, as listed by the source mutant): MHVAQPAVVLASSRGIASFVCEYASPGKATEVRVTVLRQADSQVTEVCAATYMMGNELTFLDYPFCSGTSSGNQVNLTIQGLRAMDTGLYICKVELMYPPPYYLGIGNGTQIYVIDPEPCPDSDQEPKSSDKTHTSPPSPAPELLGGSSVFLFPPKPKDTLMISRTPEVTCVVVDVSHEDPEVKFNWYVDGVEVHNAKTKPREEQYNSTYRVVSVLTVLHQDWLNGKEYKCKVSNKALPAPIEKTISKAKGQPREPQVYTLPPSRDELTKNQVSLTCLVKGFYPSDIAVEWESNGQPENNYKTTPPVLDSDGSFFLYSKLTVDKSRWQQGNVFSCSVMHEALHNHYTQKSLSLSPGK
CTLA-4Fc mutant protein M10 (human (murine residues substituted)), sequence (chain, as listed by the source mutant): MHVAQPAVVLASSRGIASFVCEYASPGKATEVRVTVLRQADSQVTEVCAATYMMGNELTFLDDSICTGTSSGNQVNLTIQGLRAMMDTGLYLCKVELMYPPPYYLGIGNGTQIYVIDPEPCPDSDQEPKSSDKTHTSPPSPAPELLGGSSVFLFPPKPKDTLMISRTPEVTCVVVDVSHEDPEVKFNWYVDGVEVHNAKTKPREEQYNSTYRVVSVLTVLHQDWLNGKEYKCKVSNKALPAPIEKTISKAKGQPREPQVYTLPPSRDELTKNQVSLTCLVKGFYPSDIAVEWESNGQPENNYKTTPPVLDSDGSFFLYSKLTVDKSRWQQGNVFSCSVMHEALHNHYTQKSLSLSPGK
wild type human CTLA-4Fc fusion protein (abatacept) (human), sequence (chain, as listed by the source limits assumed): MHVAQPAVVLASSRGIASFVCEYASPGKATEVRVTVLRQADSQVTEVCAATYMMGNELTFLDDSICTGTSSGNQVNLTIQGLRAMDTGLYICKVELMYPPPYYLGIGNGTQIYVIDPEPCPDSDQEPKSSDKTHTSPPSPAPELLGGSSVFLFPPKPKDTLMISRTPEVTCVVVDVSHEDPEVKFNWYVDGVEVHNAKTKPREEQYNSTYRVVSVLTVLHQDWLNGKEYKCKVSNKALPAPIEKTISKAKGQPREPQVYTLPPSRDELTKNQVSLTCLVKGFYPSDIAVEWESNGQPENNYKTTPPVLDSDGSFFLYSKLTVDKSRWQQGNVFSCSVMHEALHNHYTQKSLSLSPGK
CTLA-4Fc mutant protein M5 (human (murine residues substituted)), sequence (chain, as listed by the source mutant): as the sequence (chain, as listed by the source limits assumed) above, with Y52F, M53T, M54E, G55K, E57T, L58V, T59G counted along it

OD450 [1]: 2.47 OD450 and 2.43 OD450
OD450 [2]: 0.18 OD450 and 0.169 OD450
OD450 [3]: 0.202 OD450 and 0.203 OD450
OD450 [4]: 0.375 OD450 and 0.317 OD450
OD450 [5]: 0.62 OD450 and 0.587 OD450
OD450 [6]: 0.507 OD450 and 0.356 OD450
OD450 [7]: 1.54 OD450 and 1.37 OD450
OD450 [8]: 1.03 OD450 and 0.976 OD450
OD450 [9]: 0.714 OD450 and 0.738 OD450
OD450 [10]: 1.23 OD450 and 1.24 OD450
OD450 [11]: 0.18 OD450 and 0.171 OD450
OD450 [12]: 1.43 OD450 and 1.52 OD450
OD450 [13]: 0.469 OD450 and 0.333 OD450
OD450 [14]: 0.817 OD450 and 0.563 OD450
OD450 [15]: 1.24 OD450 and 1.88 OD450
OD450 [16]: 1.27 OD450 and 1.45 OD450
OD450 [17]: 0.158 OD450 and 0.213 OD450
OD450 [18]: 0.201 OD450 and 0.182 OD450
fold higher B7 blocking activity than 10D1 [19]: 1000 fold
Substance: chimeric L3D10 anti-human CTLA-4 antibody
